What was measured:
[1] = target: T1, HLA-A2 molecules on T2A2 cells (human); experiment: flow cytometry, upregulation of HLA-A2 on T2A2 cells, peptide 25 µg/mL
T1 construct: whole, on cells; also called class I molecules
Method: *Peptides were used at a concentration of 25 μg/mL. ^{#}Results expressed as mean fluorescence intensity (MFI).

[2] = target: T1, HLA-A2 molecules on T2A2 cells; experiment: flow cytometry, upregulation of HLA-A2 on T2A2 cells, peptide 12.5 µg/mL
Method: *Peptides were used at a concentration of 12.5 μg/mL. ^{#}Results expressed as mean fluorescence intensity (MFI). NGEP (P703) peptide is an HLA-A2-binding peptide. CAP-7 peptide is an HLA-A3-binding CEA peptide

Row | Binder | T2A2 Binding (MFI) [1] | T2 Binding (MFI) [2]
1 | STAPPAHNV (Synthetic 9-mer; also called pVNTR1) [VNTR-1] | 169 MFI | 
2 | STAPPAHGV (Synthetic 9-mer; also called pVNTR2; VNTR-2 (native)) [VNTR-2] | 166 MFI | 
3 | YLIALAVCQC (Synthetic 10-mer) [P1177] |  | 211 MFI
4 | YLIALAVCQV [P1177(10V)] |  | 299 MFI
5 | APDTRPAPG (Synthetic 9-mer; also called pVNTR4; VNTR-4 (native)) [VNTR-4] | 210 MFI | 
6 | SLSYTNPAV (Synthetic 9-mer) [P1240] |  | 326 MFI
7 | YLSYTNPAV [P1240(1Y)] |  | 342 MFI
8 | ALAIVYLIAL (Synthetic 10-mer, purity >90%; also called Native 432) [P1172] |  | 249 MFI
9 | YLAIVYLIAL [P1172(1Y)] |  | 245 MFI
10 | YLDTRPAPV (Synthetic analog with substitutions at positions 1, 2 and 9; also called pVNTR5; pVNTR-5) [VNTR-5 (agonist)] | 647 MFI | 
11 | YLAPPAHGV (also called pVNTR3; pVNTR-3) [VNTR-3 (agonist)] | 486 MFI | 
